In patent publication US20260158147A1:

Key:
aBeta [1] = molecular target: aBeta (UniProt P05067); test: ELISA; commercial
aBeta [2] = molecular target: aBeta (UniProt P05067); test: ELISA

| Substance | EC50 (aBeta [1]) [nM] | EC50 (aBeta [2]) [nM] |
| --- | --- | --- |
| Lecanemab (commercial) | 0.115 |  |
| Lecanemab (unshuttled) |  | 0.105 |
